In paper PMC8497999 (iScience, 2021):
Residue numbers refer to the chain shown, from its start. Read-outs that look alike come from different tables or passages of the source.

Tests used:
Assay in all cases: SEC
[1] = target: T1, ACAD9-His6 E426Q (human, UniProt Q9H845 38-621, E426Q)
T1 sequence: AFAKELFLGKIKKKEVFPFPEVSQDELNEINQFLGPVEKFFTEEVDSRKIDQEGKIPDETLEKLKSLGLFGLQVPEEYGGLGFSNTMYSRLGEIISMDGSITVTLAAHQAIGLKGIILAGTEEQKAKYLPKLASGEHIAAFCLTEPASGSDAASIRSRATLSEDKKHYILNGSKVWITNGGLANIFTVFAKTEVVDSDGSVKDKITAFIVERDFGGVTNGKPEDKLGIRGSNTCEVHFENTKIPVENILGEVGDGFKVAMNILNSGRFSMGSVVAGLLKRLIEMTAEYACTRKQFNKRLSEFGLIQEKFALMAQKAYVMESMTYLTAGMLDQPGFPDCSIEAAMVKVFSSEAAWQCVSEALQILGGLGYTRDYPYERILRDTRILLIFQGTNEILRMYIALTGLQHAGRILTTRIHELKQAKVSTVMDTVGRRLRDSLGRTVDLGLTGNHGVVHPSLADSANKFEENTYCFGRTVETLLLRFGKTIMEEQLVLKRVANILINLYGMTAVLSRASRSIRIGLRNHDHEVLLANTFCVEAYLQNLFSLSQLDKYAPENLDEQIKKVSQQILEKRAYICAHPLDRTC

[2] = target: T2, ACAD9 (non-tagged wild type) (human, UniProt Q9H845 38-621)
T2 sequence: T1 sequence with Q389E

[3] = target: T2, ACAD9 (non-tagged wild type); remark: listed apart in the source

B1: His6-ECSIT (mature human mitochondrial ECSIT with N-terminal His tag) (natural protein)
chain: SSEQSLVPSPPEPRQRPTKALVPFEDLFGQAPGGERDKASFLQTVQKFAEHSVRKRGHIDFIYLALRKMREYGVERDLAVYNQLLNIFPKEVFRPRNIIQRIFVHYPRQQECGIAVLEQMENHGVMPNKETEFLLIQIFGRKSYPMLKLVRLKLWFPRFMNVNPFPVPRDLPQDPVELAMFGLRHMEPDLSARVTIYQVPLPKDSTGAADPPQPHIVGIQSPDQQAALARHNPARPVFVEGPFSLWLRNKCVYYHILRADLLPPEEREVEETPEEWNLYYPMQLDLEYVRSGWDNYEFDINEVEEGPVFAMCMAGAHDQATMAKWIQGLQETNPTLAQIPVVFRLAGSTRELQTSSAGLEEPPLPEDHQEEDDNLQRQQQGQS
Does B1 bind [1]?
Result: binds

And the “stoichiometry N” value [2]?
The value was 1 monomer:monomer.

What about the “stoichiometry N” value [3] of the same binder?
Its value is 1 ECSIT monomer per ACAD9 monomer (2:2).
